# Laboratory results: US20230212543A1 (GENOVIS, published 2023)
# Where no end group is shown, it is not given here.
# T1: TNFαR (the TNFα binding part of etanercept) (human, UniProt P20333 23-257, O-glycosylated; pretreated with sialidase mixture in the binding assay)
# T1 construct: also called TNFaR2; TNFaR
# T1 sequence (looked up): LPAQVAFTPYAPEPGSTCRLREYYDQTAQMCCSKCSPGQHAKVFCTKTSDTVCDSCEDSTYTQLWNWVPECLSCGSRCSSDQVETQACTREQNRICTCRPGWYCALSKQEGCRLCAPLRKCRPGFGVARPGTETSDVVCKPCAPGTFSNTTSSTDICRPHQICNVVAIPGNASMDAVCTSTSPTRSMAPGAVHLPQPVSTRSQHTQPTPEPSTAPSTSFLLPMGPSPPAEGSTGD
# T2: glycodrosocin (GD) (not fully specified (residue 11))
# T2 construct: also called glycodrosocin peptide
# T2 peptide: GKPRPYSPRPTSHPRPIRV
# T3: H2686
# T3 construct: Non-glycosylated peptide
# T3 peptide: YIYGSFK
# T4: H4062
# T4 construct: Non-glycosylated peptide
# T4 peptide: KKLVFFA
# T5: H8390
# T5 construct: Non-glycosylated peptide
# T5 peptide: FLPLILGKLVKGLL
# B1: LSH205A/E206A (designed binder)
# chain: MEVTVPDALKDRIALKKTARQLNIVYFLGSDTEPVPDYERRLSELLLYLQQFYGKEMQRHGYGARSFGLDIKSPGRVNIIEYKAKNPAAHYPYENGGGWKAAQELDEFFKAHPDRKKSQHTLIIMPTWNDEKNGPDNPGGVPFYGMGRNCFALDYPAFDIKHLGQKTREGRLLTKWYGGMAAALGHGLNLPHNHQTASDGKKYGTALMGSGNYTFGTSPTFLTPASCALLDACEVFSVTPSQQFYEGKPEVEVGDVAISFKGDQILVSGNYKSPQTVKALNVYIQDPPYAVNQDYDAVSFSRRLGKKSGKFSMKIDKKELEGLNNNEFRISLMFILANGLHMQKHFTFHWDALQDYRDGSKSGSGHHHHHH
# notes: also called LSHE206AA; Amuc1119H205A/E206A
# Key:
# [1] = target: T6, BSA (bovine serum albumin) (bovine, UniProt P02769 25-607); assay: protein mix on immobilised LSH205A/E206A resin, SDS-PAGE (FIG. 11B)
# T6 construct: Non-glycosylated control protein
# T6 sequence (P02769 25-607 limits assumed): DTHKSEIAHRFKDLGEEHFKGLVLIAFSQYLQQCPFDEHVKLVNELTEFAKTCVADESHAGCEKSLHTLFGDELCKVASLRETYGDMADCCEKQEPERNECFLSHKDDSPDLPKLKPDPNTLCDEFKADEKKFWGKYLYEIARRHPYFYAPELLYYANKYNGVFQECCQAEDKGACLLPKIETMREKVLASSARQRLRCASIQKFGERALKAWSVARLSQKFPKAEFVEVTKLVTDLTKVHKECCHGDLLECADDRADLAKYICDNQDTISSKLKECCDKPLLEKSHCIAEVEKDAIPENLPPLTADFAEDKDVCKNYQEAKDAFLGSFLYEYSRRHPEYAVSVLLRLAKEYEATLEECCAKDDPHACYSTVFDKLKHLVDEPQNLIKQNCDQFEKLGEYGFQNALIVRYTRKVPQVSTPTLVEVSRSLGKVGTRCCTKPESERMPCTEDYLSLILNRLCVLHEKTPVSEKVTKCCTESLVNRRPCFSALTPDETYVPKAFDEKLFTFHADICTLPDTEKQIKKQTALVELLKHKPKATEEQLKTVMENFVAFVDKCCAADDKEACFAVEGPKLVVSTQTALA
# [2] = target: T1, TNFαR (the TNFα binding part of …); assay: as above
# glycodrosocin (GD) = target: T2, glycodrosocin (GD); assay: peptide mix on immobilised double-mutant resin, LC/MS of load, flow through and eluate (FIG. 19A)
# H2686 = target: T3, H2686; assay: as above
# H4062 = target: T4, H4062; assay: as above
# H8390 = target: T5, H8390; assay: as above
binder,measurement,setting,value
B1,binding result,[1],no binding
same,binding result,[2],binds
same,binding result,glycodrosocin (GD),binds
same,binding result,H2686,no binding
same,binding result,H4062,no binding
same,binding result,H8390,no binding
